The experiment concerns the target T1, NIM450 bait (first 450 amino acids of the NIM1 protein fused to the LexA DNA binding domain) (Arabidopsis, UniProt P0A7C2 1-202; P93002 1-450).
T1 construct: Truncated bait of the yeast two-hybrid screen
T1 sequence (looked up): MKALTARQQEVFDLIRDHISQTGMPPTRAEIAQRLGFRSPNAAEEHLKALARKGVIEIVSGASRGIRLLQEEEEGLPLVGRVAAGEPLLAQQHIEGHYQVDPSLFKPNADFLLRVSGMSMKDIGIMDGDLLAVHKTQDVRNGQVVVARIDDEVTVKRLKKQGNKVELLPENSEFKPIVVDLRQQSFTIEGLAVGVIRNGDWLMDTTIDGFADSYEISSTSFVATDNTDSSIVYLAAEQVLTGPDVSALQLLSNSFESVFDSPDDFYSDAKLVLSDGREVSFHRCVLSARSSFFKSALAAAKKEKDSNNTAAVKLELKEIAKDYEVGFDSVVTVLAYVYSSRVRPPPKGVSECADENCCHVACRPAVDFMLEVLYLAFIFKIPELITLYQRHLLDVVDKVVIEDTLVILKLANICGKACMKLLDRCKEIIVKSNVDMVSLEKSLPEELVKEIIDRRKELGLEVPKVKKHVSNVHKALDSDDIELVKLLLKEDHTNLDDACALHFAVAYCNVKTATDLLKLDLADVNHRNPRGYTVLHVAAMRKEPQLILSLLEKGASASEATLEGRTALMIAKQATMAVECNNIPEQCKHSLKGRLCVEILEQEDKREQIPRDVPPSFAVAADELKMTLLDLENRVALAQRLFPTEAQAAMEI
Description: yeast two-hybrid (LexA bait, B42 prey; Leu2 and LacZ reporters).

B1: NI16 clone (Arabidopsis NI16 cDNA clone from the pJG4-5 library, fused to the B42 transcriptional activation domain) (other, not shown: large carriers)
chain: MNNSLKKEERVEEDNGKSDGNRGKPSTEVVRTVTEEEVDEFFKILRRVHVATRTVAKVNGGVAEGELPSKKRKRSQNLGLRNSLDCNGVRDGEFDEINRVGLQGLGLDLNCKPEPDSVSLSL
notes: Prey of the yeast two-hybrid screen; also called NI16 protein
B1: the binding result is “no binding”.

The values above are taken from patent publication EP1730287B1 (Syngenta Participations AG, dated 2011).
